Test results as given in US20230048360A1 (EUREKA THERAPEUTICS, published 2023).
Like-named read-outs stand apart in the source and are kept apart here.

Key:
[1] = biological target: T1, biotinylated rat GPC3 (rat, UniProt P13265 25-558, limits assumed, biotinylated (site not stated)); assay: ELISA, biotinylated rat GPC3 on streptavidin plate
T1 construct: also called rat bt-GPC3; rat GPC3 peptide

[2] = biological target: T2, cell surface-bound human GPC3 on GPC3+ HepG2 cells (human, UniProt P51654 25-560, GPI anchor and heparin sulfate side chains, as the filing describes native GPC3); assay: flow cytometry at 10 µg/mL, PE anti-mouse IgG detection
T2 construct: Endogenous GPC3 of the HepG2 line; also called Glypican 3; native GPC3
Experimental: Anti-GPC3 mIgG1 antibodies were tested for the binding towards GPC3-positive HepG2 and GPC3-negative SK-Hep1 cells by flow cytometry. 10 μg/mL of constructed antibody was added to cells on ice for 1 hour.

[3] = biological target: T3, biotinylated GPC3-51mer fragment (human, biotinylated (site not stated)); assay: phage ELISA on biotinylated GPC3-51mer
T3 construct: Synthesized by Elim Biopharmaceuticals; also called bt-GPC3-51mer; hGPC3-51mer fragment
T3 peptide: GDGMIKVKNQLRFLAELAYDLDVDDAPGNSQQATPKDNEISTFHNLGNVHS

[4] = biological target: T2, cell surface-bound human GPC3 on GPC3+ …; assay: FACS on GPC3+ HepG2 cells, labelled on the sheet GPC3A L2K against control L2K; control L2K median 93.8; axis PE-A
Experimental: (§1) APC-conjugated anti-His tag mouse antibody (R&D Systems) was added in a volume of 100 μl, a 20-fold dilution of 5% FBS in PBS and 0.05% NaN₃ and incubated for 1 hour at 4° C. in the dark, then washed twice with PBS. The cells were fixed in 3-fold dilution of fixation buffer (BioLegend) in PBS in a volume of 150 μl.

[5] = biological target: T4, biotinylated recombinant human GPC3(560) (human, biotin on the C-terminal BirA substrate peptide ; Biotin on a lysine of the C-terminal BirA substrate peptide, which is not in the letters.); assay: SPR, Biacore X100, single-cycle kinetics, bt-GPC3(560) captured on chip, 1:1 model
T4 construct: Made in E. coli BL21 (pET-27b) from inclusion bodies and biotinylated with BirA; also called bt-GPC3(560); soluble bt-GPC3(560) protein
Experimental: All of the proteins used in the assay were diluted in HBS-E buffer prior to use. Briefly, 5-10 μg/ml of bt-GPC3₍₅₆₀₎ was immobilized onto a sensor chip pre-functionalized with CAPture Reagent and injected onto the flow cell. Affinity of the L2K bispecific antibodies for immobilized antigen was measured by injection of the various bispecific antibodies at 0.3-5 mg/ml with a 90 second association phase followed by a 90 second dissociation phase at a flow rate of 30 μl/min. At the end of each run, the surface of the sensor chip was regenerated using the reagents provided in the Biotin CAPture kit. Binding constants were determined by nonlinear regression analysis using a 1:1 binding model (BIACORE™ X-100 evaluation software, FIGS. 15A and 15B). The association-on-rate-kₒₙ, affinity constant-kₐ, dissociation constant-kd, and equilibrium dissociation constant-Kd were then calculated for each L2K clone (Table 14).

[6] = biological target: T2, cell surface-bound human GPC3 on GPC3+ …; assay: apparent Kd from FACS on GPC3+ HepG2 cells
Experimental: (§2) APC-conjugated anti-His tag mouse antibody (R&D Systems) was added in a volume of 100 μl, a 20-fold dilution of 5% FBS in PBS and 0.05% NaN₃ and incubated for 1 hour at 4° C. in the dark, then washed twice with PBS. The cells were fixed in 3-fold dilution of fixation buffer (BioLegend) in PBS in a volume of 150 μl. As a separate control, HepG2 cells were also incubated with APC-conjugated anti-His tag mouse antibody (R&D Systems) in the absence of any L2K bispecific antibody.

[7] = biological target: T2, cell surface-bound human GPC3 on GPC3+ …; assay: FACS titration on GPC3+ HepG2 cells, anti-His detection
Experimental: as §2

[8] = biological target: T2, cell surface-bound human GPC3 on GPC3+ …; assay: FACS, phage on GPC3+ HepG2 cells
Experimental: The E-APLPHA™ scFv phage libraries were screened (panned) against human GPC3 by co-incubation with recombinant GPC3-expressing SK-Hep1 cells (SK-Hep1-GPC3), then confirmed by binding to GPC3+ HepG2 cells, both with flow cytometry (see Methods). 0.2 million SK-Hep1-GPC3 cells were co-incubated with the phage library (about 1×10⁷ pfu) for 1 hours at 4° C. The cell/phage mixture was washed in PBST, incubated with mouse anti-M13 antibody for 1 hour at 4° C., washed again in PBST, then incubated for 30 minutes in the dark at 4° C. with PE-conjugated anti-mouse IgG, and subjected to FACS analysis.
FACS was performed as described in Methods. […] Then cells were washed with PBS and fixed.

[9] = biological target: T5, full-length human GPC3 over-expressed on SK-Hep1-GPC3 cells (human, UniProt P51654 25-560); assay: FACS, GPC3A L2K on SK-Hep1-GPC3 cells, APC anti-His; same L2K on GPC3-negative SK-Hep1 median 61.6
T5 construct: also called GPC3 over-expressing SK-Hep1 cells
Experimental: Cells were then washed once with PBS. APC-conjugated anti-His tag mouse antibody (R&D Systems) was added to the washed cells in a volume of 100 μl, at 20-fold dilution of 5% FBS in PBS and 0.05% NAN₃ and incubated for 1 hour at 4° C. in the dark. The cells were then washed twice with PBS. The cells were fixed in 3-fold dilution of fixation buffer (BioLegend) in PBS in a volume of 150 μl.

[10] = biological target: T2, cell surface-bound human GPC3 on GPC3+ …; assay: FACS on GPC3+ HepG2 cells, labelled on the sheet GPC3A L2K against control L2K; control L2K median 93.8; axis PE-A; remark: listed apart in the source
Experimental: as §1

[11] = biological target: T2, cell surface-bound human GPC3 on GPC3+ …; assay: apparent Kd from FACS on GPC3+ HepG2 cells; the row is GC33 L2K by paragraph 806
Experimental: as §2

[12] = biological target: T2, cell surface-bound human GPC3 on GPC3+ …; assay: FACS titration on GPC3+ HepG2 cells, anti-His detection; the row is GC33 L2K by paragraph 806
Experimental: as §2

T1 sequence (P13265 25-558 limits assumed): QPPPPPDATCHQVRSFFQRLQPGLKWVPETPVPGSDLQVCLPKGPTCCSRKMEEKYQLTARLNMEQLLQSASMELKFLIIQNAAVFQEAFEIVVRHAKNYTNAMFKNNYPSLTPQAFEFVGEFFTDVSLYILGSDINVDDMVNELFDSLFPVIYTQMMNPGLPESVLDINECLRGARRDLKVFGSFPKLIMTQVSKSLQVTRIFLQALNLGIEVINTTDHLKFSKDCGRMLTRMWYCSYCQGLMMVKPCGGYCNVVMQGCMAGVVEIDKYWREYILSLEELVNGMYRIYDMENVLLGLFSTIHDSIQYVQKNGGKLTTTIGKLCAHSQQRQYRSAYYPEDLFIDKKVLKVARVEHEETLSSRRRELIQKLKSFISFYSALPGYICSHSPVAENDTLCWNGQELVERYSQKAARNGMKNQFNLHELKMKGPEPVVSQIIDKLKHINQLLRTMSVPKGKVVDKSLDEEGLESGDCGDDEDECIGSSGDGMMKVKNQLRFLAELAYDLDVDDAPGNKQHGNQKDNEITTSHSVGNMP

B1: GPC3A-53 mIgG1 clone (antibody, V domains shown)
VH: QLQLQESGPGLVKPSETLSLTCTVSGGSISSSSYYWGWIRQPPGKGLEWIGSIYYSGSTYYNPSLKSRVTISVDTSKNQFSLKLSSVTAADTAVYYCARWWSGSYDTWGQGTLVTVSS
VL: QSVLTQPPSASAAPGQRVTISCSGTSSNIGSNYVWWYQQLPGAAPRLLIYGNSNRPSGVPDRFSGSKSGTSASLAITGLQAEDEADYYCQSYDSSLSGSNVFGTGTKVTVLG
notes: Mouse chimeric IgG1; also called GPC3A mIgG1 clone A-53
binding result [1]: no binding (tested: 5 µg/mL)

B2: anti-GPC3 mIgG1 clone A-51 (antibody, V domains shown)
VH: QVQLVQSGAEVKKPGSSVKVSCKASGGAFSSYAISWVRQAPGQGLEWMGGIIPIFGTANYAQKFQGRVTITADESTSTAYMELSSLRSEDTAVYYCARMLYLSGRYYWDSWGQGTLVTVSS
VL: QAVLTQPSSASGAPGQRVTISCTGGSSNIGAGYDVHWYQQLPGTAPKLLIYGNSNRPSGVPDRFSGSKSGTSASLAITGLQAEDEADYYCQSYDSSLSGYVFGTGTKVTVLG
notes: Fused to mouse IgG1 heavy chain and light chain constant regions
binding result [2]: binds

B3: GPC3A-43 phage clone (scFv)
scFv: QSVLTQPPSASGTPGQRVTISCSGSSSNIGTNYVYWYQQLPGTAPKLIIYRNNQRPSGVPDRFSGSESGTSASLAISGLRSEDEADYYCAVWDDSLSGVVFGGGTKLTVLGSRGGGGSGGGGSGGGGSLEMAEVQLVQSGAEVKKPGATVKVSCKVSGYTFTDYYMHWVQQAPGKGLEWMGLVDPEDGETIYAEKFQGRVTITADTSTDTAYMELSSLRSEDTAVYYCARELRDVAYYPWGVEDFWGQGTLVTVSS
notes: also called GPC3A-043
binding result [3]: no binding

B4: anti-GPC3 mIgG1 clone A-64 (antibody, V domains shown)
VH: QMQLVQSGAEVKKPGASVKVSCKASGYTFTIYGISWVRQAPGQGLEWMGWISPYNDNTIYAQKVQGRVTMTTDTSTSTAYMELRSLRSDDTAVYYCARMGVGWGYAQDSWGQGTLVTVSS
VL: LPVLTQPPSLSVAPGKTARLTCGGNNIGSKSVHWYHQKPGQAPVLVVYDDTDRPSGIPERFSGSNSGNTAALTISRVEVGDEADYYCQVWDRSSAHWVFGGGTKLTVLG
notes: as for B2
binding result [2]: binds

B5: GPC3A-58 L2K (bispecific antibody)
chain: QSVLTQPPSVSVAPGKTARITCGGNNIGSKSVHWYQQKPGQAPVLVVYDDSDRPSGIPERFSGSNSGNTATLTISRVEAGDEADYYCQVWDSSSDHVFGTGTKVTVLGSRGGGGSGGGGSGGGGSLEMAQVQLVQSGADVRKPGASVKVSCKASGYTFASHGISWVRQAPGQGLEWLGWISPYTGNTNYAQKFQGRVTMATDTSTSTAYMELRSLRSDDTAIYYCARGKRTLASCFDYWGQGTLVTVSSTSGGGGSDVQLVQSGAEVKKPGASVKVSCKASGYTFTRYTMHWVRQAPGQGLEWIGYINPSRGYTNYADSVKGRFTITTDKSTSTAYMELSSLRSEDTATYYCARYYDDHYCLDYWGQGTTVTVSSGEGTSTGSGGSGGSGGADDIVLTQSPATLSLSPGERATLSCRASQSVSYMNWYQQKPGKAPKRWIYDTSKVASGVPARFSGSGSGTDYSLTINSLEAEDAATYYCQQWSSNPLTFGGGTKVEIKHHHHHH
notes: also called GPC3A L2K bispecific antibody #58
Median : PE-A [4]: 8030
Kd [5]: 5.1 nM
koff [5]: 0.00188 s⁻¹
kon [5]: 368000 M⁻¹ s⁻¹
Kd [6]: 2.4 nM
EC50 [7]: 0.12 µg/mL

B6: GPC3A-62 phage clone (scFv)
scFv: QSVLTQPPSVSGAPGQRVTISCTGSSSNIGAGYDVHWYQQLPGTAPKLLIYGNSNWPSGVPDRFSGSKSGTSASLAITGLRAEDEADYYCQSYDSSLSGSYVFGTGTKVTVLGSRGGGGSGGGGSGGGGSLEMAQMQLVQSGSELKKPGASVKVSCKASGGTFSSYAISWVRQAPGQGLEWMGGIIPKIGTANYAQKFQGRVTITADESTSTAYMELSSLRSEDTAMYYCARMYMDMGWGWGYWDWWGQGTLVTVSS
notes: also called GPC3A-062
binding result [8]: binds

B7: GPC3A-46 L2K (bispecific antibody)
chain: QAVLTQPPSVSGTPGQRVTISCSGSSSNFGSNTVHWYQQVPGTAPKLLIFSNTQRPSEIPDRFSGSKSGTSASLAISGLQSEDEADYYCAAWDDSLTGVVFGGGTKLTVLGSRGGGGSGGGGSGGGGSLEMAQVQLVQSGAEVKKPGASVTVSCKASGYRFSNYGVSWVRQAPGQGLEWMGWISGSNGNTNYAQKFLGRVTMTTDTSTTTAYMELSSLRSDDTAVYYCARGNRRYYSPIIDPWGQGTLVTVSSTSGGGGSDVQLVQSGAEVKKPGASVKVSCKASGYTFTRYTMHWVRQAPGQGLEWIGYINPSRGYTNYADSVKGRFTITTDKSTSTAYMELSSLRSEDTATYYCARYYDDHYCLDYWGQGTTVTVSSGEGTSTGSGGSGGSGGADDIVLTQSPATLSLSPGERATLSCRASQSVSYMNWYQQKPGKAPKRWIYDTSKVASGVPARFSGSGSGTDYSLTINSLEAEDAATYYCQQWSSNPLTFGGGTKVEIKHHHHHH
Median : APC-A [9]: 657
Median : PE-A [10]: 9860
Kd [5]: 3.2 nM
koff [5]: 0.00129 s⁻¹
kon [5]: 399000 M⁻¹ s⁻¹
Kd [6]: 1 nM
EC50 [7]: 0.05 µg/mL

B8: GC33 L2K (bispecific antibody, V domains shown)
VH: QVQLQQSGAELVKPGASVKLSCKASGYTFTDYEMHWVKQTPVHGLKWMIGALDPKTGDTAYSQKFKGKATLTADKSSSTAYMELRSLTSEDSAVYYCTRFYSYTYWGQGTLVTVSA
VL: DVVMTQTPLSLPVSLGDQASISCRSSQSLVHSNGNTYLHWYLQKPGQSPKLLIYKVSNRFSGVPDRFSGSGSGTDFTLKISRVEAEDLGVYFCSQNTHVPPTFGSGTKLEIK
notes: Tested as a single-chain tandem di-scFv: scFv of GC33 fused to an anti-human CD3 epsilon scFv, with a hexahistidine tag; also called GC33 antibody converted to an L2K
Kd [11]: 2.7 nM
EC50 [12]: 0.14 µg/mL

B9: #64 GPC3A L2K (bispecific antibody)
tandem di-scFv: LPVLTQPPSLSVAPGKTARLTCGGNNIGSKSVHWYHQKPGQAPVLVVYDDTDRPSGIPERFSGSNSGNTAALTISRVEVGDEADYYCQVWDRSSAHWVFGGGTKLTVLGSRGGGGSGGGGSGGGGSLEMAQMQLVQSGAEVKKPGASVKVSCKASGYTFTIYGISWVRQAPGQGLEWMGWISPYNDNTIYAQKVQGRVTMTTDTSTSTAYMELRSLRSDDTAVYYCARMGVGWGYAQDSWGQGTLVTVSSTSGGGGSDVQLVQSGAEVKKPGASVKVSCKASGYTFTRYTMHWVRQAPGQGLEWIGYINPSRGYTNYADSVKGRFTITTDKSTSTAYMELSSLRSEDTATYYCARYYDDHYCLDYWGQGTTVTVSSGEGTSTGSGGSGGSGGADDIVLTQSPATLSLSPGERATLSCRASQSVSYMNWYQQKPGKAPKRWIYDTSKVASGVPARFSGSGSGTDYSLTINSLEAEDAATYYCQQWSSNPLTFGGGTKVEIKHHHHHH
notes: also called GPC3A-64 L2K; GPC3-64 L2K
Median : PE-A [4]: 6600

B10: GPC3A-37 phage clone (scFv)
scFv: QSVLTQPPSVSAAPGQRVTISCSGTRSNIGSDYVSWYQHLPGTAPKLLVYGDNLRPSGIPDRFSASKSGTSATLGITGLQTGDEADYYCGTWDYTLNGVVFGGGTKLTVLGSRGGGGSGGGGSGGGGSLEMAQVQLVESGGGLVQPGGSLRLSCAASGFTFSSYAMSWVRQAPGKGLEWVSVIYSGGSSTYYADSVKGRFTISRDNSKNTLYLQMNSLRAEDTAVYYCARTSYLNHGDYWGQGTLVTVSS
notes: also called GPC3A-037
binding result [3]: no binding

B11: GPC3A-38 phage clone (scFv)
scFv: QSVLTQPPSVSVAPGKTARITCGGNNIGSKSVHWYQQKPGQAPVLVIYYDSDRPSGIPERFSGSNSGNTATLTISRVEAGDEADYYCQVWDSSSDHVVFGGGTKLTVLGSRGGGGSGGGGSGGGGSLEMAQVQLVQSGAEVKKPGASVKVSCKASGYTFTSYYMHWVRQAPGQGLEWMGIINPSGGSTSYAQKFQGRVTMTRDTSTSTVYMELSSLRSEDTAVYYCARKVTGYDSWGQGTLVTVSS
notes: also called GPC3A-038
binding result [8]: binds

B12: GPC3A-42 phage clone (scFv)
scFv: SYVLTQPPSASGTPGQRVTISCFGSSSDIGSNSVFWYQQLPGAAPKLLIYSTQYRPSGVPDRFSGSKSGTSASLAISGLQSEDEAEYHCATWDDSLNGYVFGSGTKVTVLGSRGGGGSGGGGSGGGGSLEMAQVQLQQSGAEVKKPGASVKVSCKASGYSFTGYYVYWMRQAPGKGLEWMGWMNPRSGGTNYAQKFQGRVTMTRDTSISTAYMELSRLTSDDTAVYYCARSSYYWADSWGQGTLVTVSS
notes: also called GPC3A-042
binding result [3]: no binding
